Assay results from publication PMC5473857.

Molecular target: FtsZ-F268C labeled with fluorescein 5-maleimide (donor) or tetramethylrhodamine 5-maleimide (acceptor) (E. coli) (UniProt P0A9A6)

## N-terminally truncated ZipA (26-328) from E. coli (from UniProt P77173 26-328) (domain or fragment)
  FRET assay of subunit exchange of FtsZ protofilaments at steady state with ZipA, pH 6.5: reaction time τ (13.1 s for FtsZ alone): 25.2 s
